The text below walks through data of US20250136677A1 (ZOETIS SERVICES, published 2025).

Sequences and labels used below:
T1: wildtype feline IL-31 protein (Feline_IL31_wildtype) (feline)
T1 chain: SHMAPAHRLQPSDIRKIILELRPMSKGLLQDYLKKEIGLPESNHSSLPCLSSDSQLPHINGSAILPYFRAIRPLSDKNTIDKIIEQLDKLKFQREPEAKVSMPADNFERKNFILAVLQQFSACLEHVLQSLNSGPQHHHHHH

B1: A03 (antibody, V domains shown)
VH: QVLLVQSGAEVRTPGASVKIFCKASGYSFTSYTIHWLRQAPAQGLEWMGNINPTSGYTENNQRFKDRLTLTADTSTNTAYMELSSLRSADTAMYYCARWGFKYDGEWSFDVWGAGTTVTVSS
VL: EIQMTQSPSSLSASPGDRVTITCRASQAISIWLSWYQQKPGNIPKVLINKASNLHIGVPSRFSGSGSGTDFTLTISSLEPEDAATYYCLQSQTYPLTFGGGTKLEIK
notes: sample ID reads A03 although it stands between A07 and A09
B2: A09 (antibody, V domains shown)
VH: B1 VH
VL: B1 VL with A28G, I29A
B3: A05 (antibody, V domains shown)
VH: B1 VH
VL: B1 VL with R24A, A28G
B4: A26 (antibody, V domains shown)
VH: B1 VH
VL: B1 VL with A28G, P95A
B5: A27 (antibody, V domains shown)
VH: B1 VH
VL: B1 VL with A28G, L96A
B6: A23 (antibody, V domains shown)
VH: B1 VH
VL: B1 VL with A28G, Q92A
B7: A10 (antibody, V domains shown)
VH: B1 VH
VL: B1 VL with A28G, S30A
B8: A12 (antibody, V domains shown)
VH: B1 VH
VL: B1 VL with A28G, I31A
B9: A20 (antibody, V domains shown)
VH: B1 VH
VL: B1 VL with A28G, I56A
B10: A24 (antibody, V domains shown)
VH: B1 VH
VL: B1 VL with A28G, T93A
B11: A16 (antibody, V domains shown)
VH: B1 VH
VL: B1 VL with A28G, S52A
B12: A07 (antibody, V domains shown)
VH: B1 VH
VL: B1 VL with Q27A, A28G
B13: A28 (antibody, V domains shown)
VH: B1 VH
VL: B1 VL with A28G, T97A
B14: A13 (antibody, V domains shown)
VH: B1 VH
VL: B1 VL with A28G, W32A
B15: A25 (antibody, V domains shown)
VH: B1 VH
VL: B1 VL with A28G, Y94A
B16: A06 (antibody, V domains shown)
VH: B1 VH
VL: B1 VL with S26A, A28G
B17: A18 (antibody, V domains shown)
VH: B1 VH
VL: B1 VL with A28G, L54A
B18: A15 (antibody, V domains shown)
VH: B1 VH
VL: B1 VL with A28G, K50A
B19: A63 (antibody, V domains shown)
VH: B1 VH with F109A
VL: B1 VL with A28G
B20: A55 (antibody, V domains shown)
VH: B1 VH with K102A
VL: B1 VL with A28G
B21: A54 (antibody, V domains shown)
VH: B1 VH with F101A
VL: B1 VL with A28G
B22: A62 (antibody, V domains shown)
VH: B1 VH with S108A
VL: B1 VL with A28G
B23: A60 (antibody, V domains shown)
VH: B1 VH with W107A
VL: B1 VL with A28G
B24: A65 (antibody, V domains shown)
VH: B1 VH with V111A
VL: B1 VL with A28G
B25: A58 (antibody, V domains shown)
VH: B1 VH with G105A
VL: B1 VL with A28G
B26: A57 (antibody, V domains shown)
VH: B1 VH with D104A
VL: B1 VL with A28G
B27: A64 (antibody, V domains shown)
VH: B1 VH with D110A
VL: B1 VL with A28G

Where a chain is given by its changes, count along the chain named.

In the first assay the target is T1, wildtype feline IL-31 protein …. Put plainly: cell-based or functional assay.
With B1, the “% Inhibition Relative to Parent (pSTAT, FCWF-4 cells)” value (“% Inhibition Relative to Parent” below) was 52.9%.
As to B2, the “% Inhibition Relative to Parent” value came to 28%.
Turning to B3, the “% Inhibition Relative to Parent” value is 0%.
B4: the “% Inhibition Relative to Parent” value turned out to be 43.7%.
Consider B5, for which the “% Inhibition Relative to Parent” value came out at 7.2%.
On to B6, for which the “% Inhibition Relative to Parent” value came out at 29.2%.
On to B7, for which the “% Inhibition Relative to Parent” value stood at 26%.
As for B8, the “% Inhibition Relative to Parent” value came to 19.3%.
As for B9, the “% Inhibition Relative to Parent” value was 29%.
The same measure, in the same setting: next, B10: 56.7%; B11: 69.3%.
As to B12, the “% Inhibition Relative to Parent” value came to 93.6%.
Consider B13, for which the “% Inhibition Relative to Parent” value amounted to 59.7%.
Regarding B14, the “% Inhibition Relative to Parent” value is 4.4%.
With B15, the “% Inhibition Relative to Parent” value was 1.3%.
Still for that read-out and setting: with B16 the figure was 40%.
As to B17, the “% Inhibition Relative to Parent” value is 49.4%.
The same measure, in the same setting: with B18 the figure was 34.1%.

Another assay shares this target. Put plainly: Biacore, feline IL-31 chip, mAb 100 nM, share of points within parent mean +/-3 SD. Also noted: key: % of mutant data points within parent mAb mean ±3 SD. The text has this: (§1) The mean response unit of four replicates of the parent mAb+/−3 standard deviations was used to generate parameters to define a threshold of response units comprising both the on- and off-rates antibody binding (FIG. 22). The percentage of data points for each mutant fell within this threshold was then used to define a “% similarity score” (FIG. 23).
On the technique in general: Surface plasmon resonance follows binding to a sensor surface in real time, without labels.
Turning to B19, the “Binding Similarity score” value was 2.9.
As for B20, the “Binding Similarity score” value turned out to be 12.6.
On to B21, for which the “Binding Similarity score” value amounted to 17.6.
Regarding B22, the “Binding Similarity score” value worked out at 46.1.
For the molecule B23, the “Binding Similarity score” value amounted to 2.4.
As to B24, the “Binding Similarity score” value worked out at 50.5.
As for B25, the “Binding Similarity score” value was found to be 16.7.
In the case of B26, the “Binding Similarity score” value stood at 38.9.
Consider B27, for which the “Binding Similarity score” value stood at 2.7.

A further assay has the same target. Put plainly: cell-based or functional assay. The source holds these as a separate data set.
For the molecule B19, the “% Inhibition Relative to Parent” value was -6%.
Take B20: the “% Inhibition Relative to Parent” value was found to be 66.8%.
As for B21, the “% Inhibition Relative to Parent” value is -1%.
For B22, the “% Inhibition Relative to Parent” value came out at 22.6%.
For B23, the “% Inhibition Relative to Parent” value is -8.7%.
For the molecule B24, the “% Inhibition Relative to Parent” value was found to be 26.8%.
Turning to B25, the “% Inhibition Relative to Parent” value was 15.3%.
Turning to B26, the “% Inhibition Relative to Parent” value was 85.4%.
For B27, the “% Inhibition Relative to Parent” value turned out to be 6.9%.

Another assay shares this target. Put plainly: Biacore, feline IL-31 chip, mAb 100 nM, share of points within parent mean +/-3 SD. Also noted: key: % of mutant data points within parent mAb mean ±3 SD. The source holds these as a separate data set.
Description: The region of an antibody responsible for antigen recognition represents the paratope. A paratope is created by a combination of amino acids in the complementarity determining regions (CDRs) of both the heavy and light chain variable regions. The binding between antibody and antigen is often mediated by side chains of CDR residues with side chains or carbohydrate moieties of the antigen. To help define critical side chains involved in antibody recognition alanine scanning mutagenesis was performed on each CDR residue in both the heavy and light chain. These mutants were then individually tested for the ability to bind feline IL-31 using the biacore and evaluated for inhibition of IL-31-mediated signaling in the FCWF-4 cell based assay.
as §1
Consider B1, for which the “Binding Similarity score” value is 58.
The same measure, in the same setting: with B2 the figure was 100; with B3, 25.6.
On to B4, for which the “Binding Similarity score” value came out at 20.9.
Still for that read-out and setting: with B5 the figure was 11.7.
Regarding B6, the “Binding Similarity score” value came out at 64.8.
Turning to B7, the “Binding Similarity score” value was determined as 63.4.
Regarding B8, the “Binding Similarity score” value stood at 25.7.
On the same count and under the same terms, next, B9: 31.3; B10: 100; B11: 58.
For B12, the “Binding Similarity score” value is 74.4.
In the case of B13, the “Binding Similarity score” value was 42.2.
For the molecule B14, the “Binding Similarity score” value is 2.4.
Consider B15, for which the “Binding Similarity score” value is 4.4.
As for B16, the “Binding Similarity score” value is 89.7.
For B17, the “Binding Similarity score” value was determined as 100.
B18: the “Binding Similarity score” value is 11.6.
